Data reported in patent US20250115654A1, “PHARMACEUTICAL COMPOSITION OF GLP-1 RECEPTOR AND GIP RECEPTOR DUAL AGONIST, AND USE THEREOF” (FUJIAN SHENGDI PHARMACEUTICAL CO., LTD., priority 2021, published 2025).
Numbered stars: 1 amine (or outer) side, 2 acyl side, 3 side chain; on linkers, the order of the positions; unused ones are H or OH. Square brackets hold non-standard residues; d marks the D form. Side chains are listed from the residue outwards. γGlu = O=C(O)[C@H](CCC(=O)[*:2])N[*:1]; AEEA = NCCOCCOCC(=O)O; Aib = CC(C)(N)C(=O)O

Each binder was assayed against T1, human glucose-dependent insulinotropic polypeptide receptor (GIPR) (human, UniProt P48546) (assay: cell-based or functional assay).
T1 sequence: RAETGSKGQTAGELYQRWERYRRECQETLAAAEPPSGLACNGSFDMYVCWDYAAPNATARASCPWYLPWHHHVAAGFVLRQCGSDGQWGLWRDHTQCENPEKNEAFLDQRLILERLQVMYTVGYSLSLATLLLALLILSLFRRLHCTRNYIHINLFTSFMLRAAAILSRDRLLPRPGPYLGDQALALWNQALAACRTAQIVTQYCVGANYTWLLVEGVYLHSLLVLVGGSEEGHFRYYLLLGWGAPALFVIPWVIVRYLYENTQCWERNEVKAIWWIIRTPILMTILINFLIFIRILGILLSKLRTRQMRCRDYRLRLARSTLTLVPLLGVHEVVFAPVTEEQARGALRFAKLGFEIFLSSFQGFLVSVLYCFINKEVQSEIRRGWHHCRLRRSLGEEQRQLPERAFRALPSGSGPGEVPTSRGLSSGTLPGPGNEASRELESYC

| Binder | Activity against human GIPR (EC50 nM); cAMP, HTRF [nM] |
| --- | --- |
| H-Y[Aib]EGTFTSDYSIYK([AEEA-AEEA-γGlu-C20‑OH])EKIAAQEFVNWLIAGGPSSGAPPPS-NH2 [compound 12# H-YAibEGTFTSDYSIYK(OEG-OEG-yGlu-C20-OH)EKIAAQEFVNWLIAGGPSSGAPPPS-NH2] | 0.17 |
| H-Y[Aib]EGTFTSDYSIYLEK([AEEA-AEEA-γGlu-C20‑OH])IAAQEFVNWLIAGGPSSGAPPPS-NH2 [compound 9# H-YAibEGTFTSDYSIYLEK(OEG-OEG-yGlu-C20-OH)IAAQEFVNWLIAGGPSSGAPPPS-NH2] | 0.04 |
| H-Y[Aib]EGTFTSDYSIYK([AEEA-AEEA-γGlu-C20‑OH])EKIAAQEFVNWLLAGGPSSGAPPPS-NH2 [compound 18# H-YAibEGTFTSDYSIYK(OEG-OEG-yGlu-C20-OH)EKIAAQEFVNWLLAGGPSSGAPPPS-NH2] | 0.06 |
| H-Y[Aib]EGTFTSDYSIYK([AEEA-AEEA-γGlu-C20‑OH])ERIAAQEFINWLIAGGPSSGAPPPS-NH2 [compound 15# H-YAibEGTFTSDYSIYK(OEG-OEG-yGlu-C20-OH)ERIAAQEFINWLIAGGPSSGAPPPS-NH2] | 0.23 |
| H-Y[Aib]EGTFTSDYSIYK([AEEA-AEEA-γGlu-C20‑OH])ERIAAQEFVNWLLAGGPSSGAPPPS-NH2 [compound 17# H-YAibEGTFTSDYSIYK(OEG-OEG-yGlu-C20-OH)ERIAAQEFVNWLLAGGPSSGAPPPS-NH2] | 0.11 |
| H-Y[Aib]EGTFTSDYSIYLEK([AEEA-AEEA-γGlu-C20‑OH])IAAQEFINWLIAGGPSSGAPPPS-NH2 [compound 10# H-YAibEGTFTSDYSIYLEK(OEG-OEG-yGlu-C20-OH)IAAQEFINWLIAGGPSSGAPPPS-NH2] | 0.056 |
| H-Y[Aib]EGTFTSDYSIYK([AEEA-AEEA-γGlu-C20‑OH])EKIAAQEFINWLLAGGPSSGAPPPS-NH2 [compound 16# H-YAibEGTFTSDYSIYK(OEG-OEG-yGlu-C20-OH)EKIAAQEFINWLLAGGPSSGAPPPS-NH2] | 0.095 |
| H-Y[Aib]EGTFTSDYSIYK([AEEA-AEEA-γGlu-C20‑OH])EKIAAQEFINWLIAGGPSSGAPPPS-NH2 [compound 14# H-YAibEGTFTSDYSIYK(OEG-OEG-yGlu-C20-OH)EKIAAQEFINWLIAGGPSSGAPPPS-NH2] | 0.13 |
| H-Y[Aib]EGTFTSDYSIYK([AEEA-AEEA-γGlu-C20‑OH])ERIAAQEFVNWLIAGGPSSGAPPPS-NH2 [compound 13# H-YAibEGTFTSDYSIYK(OEG-OEG-yGlu-C20-OH)ERIAAQEFVNWLIAGGPSSGAPPPS-NH2] | 0.13 |

Each binder was assayed against human glucagon-like peptide-1 receptor (GLP-1R) (human, UniProt P43220) (assay: cell-based or functional assay).

| Binder | Activity against human GLP-1R (EC50 nM); cAMP, HTRF [nM] |
| --- | --- |
| H-Y[Aib]EGTFTSDYSIYK([AEEA-AEEA-γGlu-C20‑OH])EKIAAQEFVNWLIAGGPSSGAPPPS-NH2 [compound 12# H-YAibEGTFTSDYSIYK(OEG-OEG-yGlu-C20-OH)EKIAAQEFVNWLIAGGPSSGAPPPS-NH2] | 0.03 |
| H-Y[Aib]EGTFTSDYSIYLEK([AEEA-AEEA-γGlu-C20‑OH])IAAQEFVNWLIAGGPSSGAPPPS-NH2 [compound 9# H-YAibEGTFTSDYSIYLEK(OEG-OEG-yGlu-C20-OH)IAAQEFVNWLIAGGPSSGAPPPS-NH2] | 0.049 |
| H-Y[Aib]EGTFTSDYSIYK([AEEA-AEEA-γGlu-C20‑OH])EKIAAQEFVNWLLAGGPSSGAPPPS-NH2 [compound 18# H-YAibEGTFTSDYSIYK(OEG-OEG-yGlu-C20-OH)EKIAAQEFVNWLLAGGPSSGAPPPS-NH2] | 0.013 |
| H-Y[Aib]EGTFTSDYSIYK([AEEA-AEEA-γGlu-C20‑OH])ERIAAQEFINWLIAGGPSSGAPPPS-NH2 [compound 15# H-YAibEGTFTSDYSIYK(OEG-OEG-yGlu-C20-OH)ERIAAQEFINWLIAGGPSSGAPPPS-NH2] | 0.015 |
| H-Y[Aib]EGTFTSDYSIYK([AEEA-AEEA-γGlu-C20‑OH])ERIAAQEFVNWLLAGGPSSGAPPPS-NH2 [compound 17# H-YAibEGTFTSDYSIYK(OEG-OEG-yGlu-C20-OH)ERIAAQEFVNWLLAGGPSSGAPPPS-NH2] | 0.022 |
| H-Y[Aib]EGTFTSDYSIYLEK([AEEA-AEEA-γGlu-C20‑OH])IAAQEFINWLIAGGPSSGAPPPS-NH2 [compound 10# H-YAibEGTFTSDYSIYLEK(OEG-OEG-yGlu-C20-OH)IAAQEFINWLIAGGPSSGAPPPS-NH2] | 0.065 |
| H-Y[Aib]EGTFTSDYSIYK([AEEA-AEEA-γGlu-C20‑OH])EKIAAQEFINWLLAGGPSSGAPPPS-NH2 [compound 16# H-YAibEGTFTSDYSIYK(OEG-OEG-yGlu-C20-OH)EKIAAQEFINWLLAGGPSSGAPPPS-NH2] | 0.029 |
| H-Y[Aib]EGTFTSDYSIYK([AEEA-AEEA-γGlu-C20‑OH])EKIAAQEFINWLIAGGPSSGAPPPS-NH2 [compound 14# H-YAibEGTFTSDYSIYK(OEG-OEG-yGlu-C20-OH)EKIAAQEFINWLIAGGPSSGAPPPS-NH2] | 0.013 |
| H-Y[Aib]EGTFTSDYSIYK([AEEA-AEEA-γGlu-C20‑OH])ERIAAQEFVNWLIAGGPSSGAPPPS-NH2 [compound 13# H-YAibEGTFTSDYSIYK(OEG-OEG-yGlu-C20-OH)ERIAAQEFVNWLIAGGPSSGAPPPS-NH2] | 0.017 |
